Biological target: PSI–LHCI as found in the chloroplast PSI–LHCI dimer (one monomer unit, without PsaH, PsaO and Lhca2) (Chlamydomonas reinhardtii) (UniProt P12154)
Assay: cryo-EM structure; heavier green band of the sucrose gradient of affinity-purified PSI cross-linked with activated Pc; 1 mg chlorophyll/ml, vitrified at 4 °C; dimer refined with C2 symmetry, monomer with C1, focused classification on the Pc region

- stoichiometry N: 2
Substance: PSI–LHCI as found in the chloroplast PSI–LHCI dimer (one monomer unit, without PsaH, PsaO and Lhca2) (from UniProt P12154 1-751; P09144 1-735; Q39615 36-196; P12352 25-97; P12356 63-227; P14224 31-126; P14225 27-113) (complex)

Source: paper PMC9579051
